Laboratory results taken from publication PMC10739146.

Columns and labels:
[1] = anti-HA immunoblot of total lysate; conditions: glycan lost; control: wild type Rim21
[2] = cycloheximide chase, immunoblot, ± alkali; conditions: glycan lost; control: wild type Rim21
[3] = stepwise centrifugation P13/P100/S100, immunoblot; conditions: glycan lost; control: wild type Rim21-HA
[4] = GFP fluorescence microscopy with mRFP-Snc1(pm) marker; conditions: glycan lost; control: wild type Rim21-2GFP

B1: Rim21: N15Q (protein)
parent chain: MNLWRHSPEELAAYNSCHPMKLGSGVLIQLPLYDNSAVYAEDITFRSFCCERVPVYVSTVLRNSSPYRYLDEVINDWQKFIQVSDYVGGSAEYAIYAVILSITSNFVITVFLTVICCINISGRAYKRILQLLRIASLLASLNLTIFITKVLRRLEKEHNVYGVVRAHSIMHIFSDDMTFVVLDFLATLMFQFCQVGIVIRLFQRAQEKRIIFFIGVILTITANILWVIPPFANHTTKHRNDWQILRPFVYLFRIAIATSYASIVIYHIWQKKKLWFKFNQMGLLTLLTILVVLLLPGFFLADVSNLWISELGEVFNTTCYVTSTVITWEWLDRLNVLERKEEAQSILGRPIFEEEQQDYRFAKYALRVQNALTRRESQDASTDRHDTSSNSEVCDLQTISRYDPEDQISVGRSIDRMHFNDRGTYKDVALKKLGYARDKILYFTDQIVQKSVGHNNSSSSKNEKTKQRKAMVRKRLGLDKPGIYIYSTKDVVFNSDEDDDENAEDEDDDEYEVGSEGNNNSSATFTSDHIGHI
expression_or_secretion [1]: increases | degradation_or_half_life [2]: increases | localisation_or_trafficking [3]: changes | localisation_or_trafficking [4]: no change
